# From patent US9944717
# T1: glycosylated recombinant human complement C2 with a N-terminal his-tag
# T1 chain: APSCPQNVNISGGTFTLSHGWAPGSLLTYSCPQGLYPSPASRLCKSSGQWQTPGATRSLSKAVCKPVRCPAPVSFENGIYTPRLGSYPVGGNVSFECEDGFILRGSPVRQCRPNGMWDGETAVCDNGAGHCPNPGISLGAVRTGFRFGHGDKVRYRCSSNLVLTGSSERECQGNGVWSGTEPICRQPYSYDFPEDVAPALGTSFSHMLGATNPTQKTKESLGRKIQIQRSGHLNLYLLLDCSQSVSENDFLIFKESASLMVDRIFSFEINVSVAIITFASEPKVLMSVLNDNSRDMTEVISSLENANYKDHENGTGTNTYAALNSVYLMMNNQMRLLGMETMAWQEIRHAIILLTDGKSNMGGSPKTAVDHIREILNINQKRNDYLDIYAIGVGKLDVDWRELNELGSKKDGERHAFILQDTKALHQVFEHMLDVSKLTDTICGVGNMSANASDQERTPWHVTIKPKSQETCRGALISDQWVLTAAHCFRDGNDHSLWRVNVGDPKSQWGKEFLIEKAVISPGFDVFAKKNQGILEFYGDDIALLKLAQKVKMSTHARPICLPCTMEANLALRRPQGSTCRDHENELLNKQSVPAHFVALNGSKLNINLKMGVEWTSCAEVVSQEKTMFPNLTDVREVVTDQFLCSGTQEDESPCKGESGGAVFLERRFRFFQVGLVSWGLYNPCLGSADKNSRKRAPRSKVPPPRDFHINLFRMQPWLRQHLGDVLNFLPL
# B1: plasma-derived activated human C1s (Calbiochem) (protein)
# chain: EPTMYGEILSPNYPQAYPSEVEKSWDIEVPEGYGIHLYFTHLDIELSENCAYDSVQIISGDTEEGRLCGQRSSNNPHSPIVEEFQVPYNKLQVIFKSDFSNEERFTGFAAYYVATDINECTDFVDVPCSHFCNNFIGGYFCSCPPEYFLHDDMKNCGVNCSGDVFTALIGEIASPNYPKPYPENSRCEYQIRLEKGFQVVVTLRREDFDVEAADSAGNCLDSLVFVAGDRQFGPYCGHGFPGPLNIETKSNALDIIFQTDLTGQKKGWKLRYHGDPMPCPKEDTPNSVWEPAKAKYVFRDVVQITCLDGFEVVEGRVGATSFYSTCQSNGKWSNSKLKCQPVDCGIPESIENGKVEDPESTLFGSVIRYTCEEPYYYMENGGGGEYHCAGNGSWVNEVLGPELPKCVPVCGVPREPFEEKQRIIGGSDADIKNFPWQVFFDNPWAGGALINEYWVLTAAHVVEGNREPTMYVGSTSVQTSRLAKSKMLTPEHVFIHPGWKLLEVPEGRTNFDNDIALVRLKDPVKMGPTVSPICLPGTSSDYNLMDGDLGLISGWGRTEKRDRAVRLKAARLPVAPLRKCKEVKVEKPTADAEAYVFTPNMICAGGEKGMDSCKGDSGGAFAVQDPNDKTKFYAAGLVSWGPQCGTYGLYTRVKNYVDWIMKTMQENSTPRED
# Molecular target: T1, glycosylated recombinant human …
protein,measurement,value
B1,"cleavage of recombinant C2 by C1s (SDS-PAGE, C1s-to-C2 ratio of 1:25)",C1s cleaved recombinant C2 into subcomponents C2a (≈70 kDa) and C2b (≈30 kDa)
